From PMC7439320 (Science Advances, 2020)
Several values for one entry are separate records, joined by “and”; a condition that tells them apart may be missing. Equal values may be shown once.

B1: Homo sapiens calcium homeostasis modulator 2 (HsCALHM2) (natural protein)
chain: MAALIAENFRFLSLFFKSKDVMIFNGLVALGTVGSQELFSVVAFHCPCSPARNYLYGLAAIGVPALVLFIIGIILNNHTWNLVAECQHRRTKNCSAAPTFLLLSSILGRAAVAPVTWSVISLLRGEAYVCALSEFVDPSSLTAREEHFPSAHATEILARFPCKENPDNLSDFREEVSRRLRYESQLFGWLLIGVVAILVFLTKCLKHYCSPLSYRQEAYWAQYRANEDQLFQRTAEVHSRVLAANNVRRFFGFVALNKDDEELIANFPVEGTQPRPQWNAITGVYLYRENQGLPLYSRLHKWAQGLAGNGAAPDNVEMALLPS
B2: Caenorhabditis elegans calcium homeostasis modulator protein CLHM-1 (CeCLHM-1) (natural protein)
chain: MTTSINSVVTVFQNVFTNHGSTLLNGILIATTVGGQSLVRKLTFSCPCAYPLNIYHSLVFMFGPTAALLLIGITVNSTTWKLAHGFFFRVRDTRHSWKTTCVSWIEVLIQSSVAPIAWLFVVFLDGGYYRCYRSHEFCLISDAILCKNSTILNSYASTSSFNKISDNGKYCPPCICVPNPTDASYLEAESQIYAWGLLLFSGVAAFLVITCNRMCDKYTLVQRQYVETYKNVETQKFDAVAKEHASQLAEHNARAFFGQKDWTKRDWDWVSGIPEVNNPLFARLRLIAAEKTQQTMYTPLQLWNDNKGYRIPQPDLQLTQIIVDETKED
B3: Chimeric channel of the TMD from OlCALHM1 and the CTD from HsCALHM2 (OlCALHM1c) (other)
chain: MDKFRMMFQFLQSNQESFMNGICGIMALASAQMYSSFEFSCPCMPEYNYTYGIGLLIIPPIWFFLLGFVLNNNVSVLAEEWKRPTGRRTKDPSVLRYMLCSITQRSLIAPAVWVSVTLMDGKSFLCAFSINLDIEKFGNASLVIGMTETEKLKFLARIPCKDLFEDNEVRVAATRYIKCISQACGWMFLLMMTFTAFLIRAIRPCFTQASYRQEAYWAQYRANEDQLFQRTAEVHSRVLAANNVRRFFGFVALNKDDEELIANFPVEGTQPRPQWNAITGVYLYRENQGLPLYSRLHKWAQGLAGNGAAPDNVEMALLPS
B4: Oryzias latipes CALHM1 truncated at the C terminus (OlCALHM1EM) (domain or fragment)
chain: MDKFRMMFQFLQSNQESFMNGICGIMALASAQMYSSFEFSCPCMPEYNYTYGIGLLIIPPIWFFLLGFVLNNNVSVLAEEWKRPTGRRTKDPSVLRYMLCSITQRSLIAPAVWVSVTLMDGKSFLCAFSINLDIEKFGNASLVIGMTETEKLKFLARIPCKDLFEDNEVRVAATRYIKCISQACGWMFLLMMTFTAFLIRAIRPCFTQAAFLKTKYWSHYIDIERKMFDETCKEHAKSFAKVCIHQYFENISGEMQNFHRHQSKDTSDAEEEEKQRSDEDKLLGIKAQEDMNKVL

Molecular target: the molecule itself
Test: cryo-EM structure

| Protein | stoichiometry N |
| --- | --- |
| B1 | 11 |
| B2 | 9 |
| B3 | 8 and 9 |
| B4 | 8 |
